# Data from paper PMC2837123.
# Target: full-length wild type prototype foamy virus (PFV) integrase (prototype foamy virus (PFV))
# Assay: crystal structure
substance,measurement,value
full-length wild type prototype foamy virus (PFV) integrase (enzyme),stoichiometry N,4
